Laboratory results as given in the nanobody polyreactivity screen of Harvey et al. (2022).

Assay: yeast display, Sf9 membrane polyspecificity reagent, FACS + sequencing; frameworks hold sequencing errors
In short: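 Synthetic nanobody libraries on Saccharomyces cerevisiae BJ5465 were galactose-induced for 36–48 hours, stained 1 hour at 4 °C with 10% biotinylated, detergent-solubilized Sf9 membrane reagent and enriched on streptavidin microbeads. FACS then separated cells into low and high (top ~1%) gates by anti-HA (expression) and streptavidin (reagent binding) fluorescence. Genes were colony-PCR amplified, MiSeq 2 × 250 sequenced and CDR-length filtered. A clone's polyreactivity label is that of its gate of origin.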

| Sequence | polyreactivity (PSR sort gate) |
| --- | --- |
| QVQLVESAGGLVQAGGSLRLSCAASGRIFDRYTMGCYRQAPGKERELVAAITFGGGSTYYADSVKGRFTISRDNAKNTVYLQMNSLKPEDTAVYYCAKQRHGKLGHILGYNYWGQGTQVTVSS | low polyreactivity |
| QVQLVESAGGLVQAGGSLRLSCAASGRIFGRYAMGWYRQAPGKERELVAAITSGTSTYYADSVKGRFTISRDNAKNTVYLQMNSLKPEDTAVYYCNADYPYYPYRENYWGQGTQVTVSS | low polyreactivity |
| QVQLVESAGGLVQAGGSLRLSCAASGRIFPYYAMGWYRQAPGKERELVAAITTDGGGTYYADSVKGRFTISRDNSKNTVYLQMNSMKPEDTAVYYCAVPSYQWYDPENYWGQGTQVTVSS | low polyreactivity |
| QVQLVESAGGLVQAGGSLRLSCAASGRISAYAMGWYRQAPGKERELVAAISSRGGRTYYADSVKGRFTISRDNAKNTVYLQMNSLKPDDTAVYYCNALRTWEFDHWGQGTQVTVSS | high polyreactivity |
| QVQLVESAGGLVQAGGSLRLSCAASGRNFYRNAMGWYRQAPGKERELVAAISYSGGSTYYADSVKGRFTISRDNAKNTVYLQMNSLKPEDTAVYYFAAAGDRWGNYWGQGTLVTVSS | high polyreactivity |
| QVQLVESAGGLVQAGGSLRLSCAASGRTFPGNAMGWYRQAPGKERELVATISSGGTTNYADSVKGRFTISRDNAKTTVYLQMNSLKPEDTAVYYCATDTYHHKADYEYWGQGTQVTVSS | low polyreactivity |
| QVQLVESAGGLVQAGGSLRLSCAASGSICTKYAMGWYRQAPGKERELVAAISASGGSTYYADSVKGRFTISRDNAKNTVYLQMNSLKPEDTAVYYCAARYWVREDYWGQGTQVTVSS | high polyreactivity |
| QVQLVESAGGLVQAGGSLRLSCAASGSIFILNAMGWYRQAPGKERELVAAISWSGGRTNYADSVKGRFTISRDNAKNTVYLHMNRLKPEDTAVYSCAARVTPYRGFYYWGQGTQVTVSS | high polyreactivity |
| QVQLVESAGGLVQAGGSLRLSCAASGSIFPAYAMGWYRQAPGKERELVASITTGDRTYYADSVKGRFTISRDNAKNTVYLQMNSLKPEDTAVYYCAALYYVHYYSAHYPTLSRHEYWGPGTQVTVSS | high polyreactivity |
| QVQLVESAGGLVQAGGSLRLSCAASGSIFSRNAMGWYRPAPGKERELVAAITWSGGSTYYADSVKGRFTISRDNAKNTVYLQMNSLKPEDTAVYYCNAKRSSRIKQLEYDYWGQGTQVTVSS | high polyreactivity |
| QVQLVESAGGLVQAGGSLRLSCAASGSIFTTYTIVWYRQAPGKERELVAAITSSSGSTYYADSVKGRFTISRDNAKNTVYLQMNSLKPEDTAVYYCNATYSAAVDYWGQGTQVTVSS | low polyreactivity |
| QVQLVESAGGLVQAGGSLRLSCAASGSTFDLYAMGWYRQAPGKEREFVAAISRSGGSTYYADSVKGRFTISRDNAKNTVYLHMNSLKPEDTAVYYSNARWPPGVSRGGMGYWGQGTQVTVST | high polyreactivity |
| QVQLVESAGGLVQAGGSLRLSCAASGSTFGENAMGWYRQAPGKERELVAAISDSGGDTYYADSVKGRFTISRDNAKYTVYLQMNSLKPEDTAVYYCAADRYGYWYAYYSWGQGTLVTVSS | low polyreactivity |
| QVQLVESAGGLVQAGGSLRLSCAASGSTFIRYAMGWYRQAPGKERELVAAITRGGSTYYADSVKGRFTISRDNAKYTVYLQMNSLKPEDTAVYYCAAGYYGNGVFEYDYWGQGTQVTVSS | low polyreactivity |
| QVQLVESAGGLVQAGGSLRLSCAASGSTFPTYAMGWYRQSPGKERELVAAIDWSDGSITYYADSVKGRFTISRDNAKNTVYLQMNSMKPEDTAVYYCAKDNSQYGWGYDYWGQGTQVTVSS | low polyreactivity |
| QVQLVESAGGLVQAGGSLRLSCAASGSTFVANAMGWYRQAPGKERELVARISRSTGSTYYADSVKGRFTISRDNAKNTVYLQMNSLKPEDTAVYYCAAPSVYYPQFDYWGQGTQVTVSS | high polyreactivity |
| QVQLVESAGGLVQAGGSLRLSCAASGSTLSWNTMGWYRQAPGKERELVARINWGGSSTYYADSVKGRFTISRDNAKNTVYLQMNSLKPEDTAVFYCNARYLSSAYDYWGQGTQVTVSS | high polyreactivity |
| QVQLVESAGGLVQAGGSLRLSCAASGSTLYKYAMGWYRQAPGKETEMVATLTRTDSTNYADSVKGRFTISRDNAKNTVYIQMNSLKPEDTAVYYCAARRVYYNGYYVNVGSFYYWGQGTQVTVSS | low polyreactivity |
| QVQLVESAGGLVQAGGSLRLSCAASGYIFVPYAMGWYRQAPGKERELVASITWSGGSTYYADSVKGRFTISRDNAKNTVYLQMNSLKPEDTAVYYCAAANYTYASRWYDYWGQGTQVTVSS | low polyreactivity |
| QVQLVESAGGLVQAGGSLRLSCAASGYTFPFYTMGWYRQAPGKERELVAAITDTGGGTYYADSVKGRFTISRDNAKNTVYLQMNSLNPEDTAVYYCAKPTSYRGYYSWGQGTQVTVSS | high polyreactivity |
| QVQLVESAGGLVQAGGSLRLSCAATGSIFHPYAMGWYRQAPGKERELVASITSSGGSTYYADSVKVRFTISRENAKNTVYLEMNSLKPEDTAVYYCKAQFLVYFFWYSTTAYIMYYWGQGTQVTVSS | low polyreactivity |

| Sequence | polyreactivity (PSR sort gate) |
| --- | --- |
| QVQLVESAGGLVQAGGSLRLSCAAYGIIFKIYAMGWYRQAPGKERELVAAITRSGTRTYYADSVKGRFTISRDNEKNTVYFQMNSLKPEDTAGYYCNAYTSLAYDLDYWGQGTQVTVSS | high polyreactivity |
| QVQLVESAGGLVQAGGSLRLSCAAYGRTLAKYAMGWYRQAPGKERELVAAITRDGSTNYADSVKGRFTISRDNAKNTVYLQMNSLKPEDTAVYYCATRSYWYRVYYWGQGTQVTVSS | high polyreactivity |
| QVQLVESAGGLVQAGGSLRLSCAAYGSIFGFYAMGWYRQAPGKERELVAAIDSGDSTNYADSVKGRFTISRDNAKNTVYLQMNSLKPEDTAVYYCNAEAWWYFWFDYWGQGTQVTVSS | low polyreactivity |
| QVQLVESAGGLVQAGGSLRLSCADSGRLFYLYARGWYRQAPGKERELVAAISSTGRTTYADSVKGRFTISRDNAKNTVYLQMNSLKPEDTAVYYGAADFRLSGSYGGFDYWGQGTQVTVSS | low polyreactivity |
| QVQLVESAGGLVQAGGSLRLSCADSGRTFAYNVIGWYRQAPGKERELVAGISFGAGTTYYADSVKGRFTISRDNAKNTVYLQMNSLKPEDTAVYYCATRRRGTRYPRGYDYWGQGTQVTVSS | high polyreactivity |
| QVQLVESAGGLVQAGGSLRLSCGASGRIYSLYAMGWYRQAPGKERELVAAISWGAGSTYYADSVKGRFTISRDNAKNTVYLQMNSLKREDTAVYYCATGRRYYYPYSSYLKYGYWGQGTQVTVSS | high polyreactivity |
| QVQLVESAGGLVQAGGSLRLSFAASGSIFYSYAMGSYRKAAGKDRELVADITSSGGSTYYADSVKGRFTISRDNAKNTDYLQMNSLKREDTAVYYCAASSPAFYGLRYNYWGQGTQVTVSS | low polyreactivity |
| QVQLVESAGGLVQAGGSLRLSGAASGSTFHNYAVGWSRQAPGKERELVGGISVRGGGTYYADSVKGRFTISRDNAKNTVYLQMNSLKPEDTAVYYCAQRSRYYYRYDYWGQGTQVTVSS | high polyreactivity |
| QVQLVESAGGLVQAGGSLRVRCAASGGIFSGNDMGWYRQAPGKERELVATITSDGSTNYADSVKGRFTISRDNAKNTVYLQMNSLKPEDTAVYYCAADGLYWWMYYWGQGTQVTVSS | low polyreactivity |
| QVQLVESAGGLVQAGGSLRYSCAASGRTIYRYAMGWYRQAPGKERELVAAINRSTGRTYYADSVKGRFTISRDNAKNTVYLQMTSLNPEDTAVYYCARSDKKYPQASSREDYGYWGQGTQVTVSS | high polyreactivity |
| QVQLVESAGGLVQAGGSLSLSCAASASTFSSNAMGGYRQAPGKERELVAAITTSGGSTYYADSVKGRFTISRDNAKNTVYLQMNSLIPEDTAVYYCAADLVHAYQWSIFLYGYWGLGTQVTVSS | low polyreactivity |
| QVQLVESAGGLVQAGGSLSLSCAASGRILDRNGMGWYRQAPGKERELVATITGIADSTYYADSVKGRFTISRDNAKNTVYLQMNSLKPEDTAVYYCAADKYVAEYDYWGQGTQVTVSS | low polyreactivity |
| QVQLVESAGGLVQAGGSRRLSCAASGRNFPFYAMGWYRQAPGKERELVATISSGDRTNYAVSVKGRFTISRDNAKNTVYLQMNSLKPEDTAVYYCAADFAVKYRKRVRRYSWGHGTQVTVSS | low polyreactivity |
| QVQLVESAGGLVQAGVRLRLSCAASGRTFVCNAMGSYRQAPGKERELVADITWSGDITYYADSVKGRFTISRDNAKNTVYLQMNSLKPEDTAVYYCAADYHRRLTDYDYWGQGTQVTVSS | low polyreactivity |
| QVQLVESAGGLVQAGVSLRLSCAASGFTFAQNVMGWYRQAPGKERELVAAISVSGGSTYYADSVKGRFTISRDNAKNTVYLQMNSLKPEDTAVYYCNAVAGVTKRVDLSRSGYWGLGTQVTVSS | high polyreactivity |
| QVQLVESAGGLVQAGVSLRLSCAASGFTFSPNAMGWYRQPPGKERELVAAIDWSGDRTYYADSVKGRFTISRDNAKNTVYLQMNSLKPEDTAVYYCAKTNFSQSSRYNYDYWGQGTQVTVSS | low polyreactivity |
| QVQLVESAGGLVQAGVSLRLSCAASGIIFPYYTMGWYRQAPGKERELVARITNGGRTYYADSVKGRFTISRDNAKNTVYLQMNSLKPEDTAVYYCNAGRYYIGGYWGQGTQVTVSS | high polyreactivity |
| QVQLVESAGGLVQAGVSRRLSFAASGSIFGDYAMGWYRQAPGTERELVATITWIGGSTYYADSVKGRFTISRDNAKNTVYLQMNSLIPEDTAVYYCAATKYVDVKYYYWGQGTQVTLSS | low polyreactivity |
| QVQLVESAGGLVQEGGILRLICADSGRIVYRYAMGWYRQAPGKERELVAAISRRGGSTYYEDSVKGRFTISRDNAKYTVIFQMNSLKAVDTAVYYFARYHWYYRVSKSDSWGQGTQVPVSS | high polyreactivity |
| QVQLVESAGGLVQEGGSLRLSCAASGLTFYGNAMGWYRQAPGKERELVAAISSSGGTTSYADSVKGRFTISRDNAKNTVYLQFNSLKPEDTAVYYCAARPSGGYESTRTRDYWGQGTQVTVSS | low polyreactivity |
